Measurements: IntAct's records for PubMed 30564455

Molecular target: ddb1_human DDB1 (UniProt Q16531)
Sequence (Q16531 whole entry): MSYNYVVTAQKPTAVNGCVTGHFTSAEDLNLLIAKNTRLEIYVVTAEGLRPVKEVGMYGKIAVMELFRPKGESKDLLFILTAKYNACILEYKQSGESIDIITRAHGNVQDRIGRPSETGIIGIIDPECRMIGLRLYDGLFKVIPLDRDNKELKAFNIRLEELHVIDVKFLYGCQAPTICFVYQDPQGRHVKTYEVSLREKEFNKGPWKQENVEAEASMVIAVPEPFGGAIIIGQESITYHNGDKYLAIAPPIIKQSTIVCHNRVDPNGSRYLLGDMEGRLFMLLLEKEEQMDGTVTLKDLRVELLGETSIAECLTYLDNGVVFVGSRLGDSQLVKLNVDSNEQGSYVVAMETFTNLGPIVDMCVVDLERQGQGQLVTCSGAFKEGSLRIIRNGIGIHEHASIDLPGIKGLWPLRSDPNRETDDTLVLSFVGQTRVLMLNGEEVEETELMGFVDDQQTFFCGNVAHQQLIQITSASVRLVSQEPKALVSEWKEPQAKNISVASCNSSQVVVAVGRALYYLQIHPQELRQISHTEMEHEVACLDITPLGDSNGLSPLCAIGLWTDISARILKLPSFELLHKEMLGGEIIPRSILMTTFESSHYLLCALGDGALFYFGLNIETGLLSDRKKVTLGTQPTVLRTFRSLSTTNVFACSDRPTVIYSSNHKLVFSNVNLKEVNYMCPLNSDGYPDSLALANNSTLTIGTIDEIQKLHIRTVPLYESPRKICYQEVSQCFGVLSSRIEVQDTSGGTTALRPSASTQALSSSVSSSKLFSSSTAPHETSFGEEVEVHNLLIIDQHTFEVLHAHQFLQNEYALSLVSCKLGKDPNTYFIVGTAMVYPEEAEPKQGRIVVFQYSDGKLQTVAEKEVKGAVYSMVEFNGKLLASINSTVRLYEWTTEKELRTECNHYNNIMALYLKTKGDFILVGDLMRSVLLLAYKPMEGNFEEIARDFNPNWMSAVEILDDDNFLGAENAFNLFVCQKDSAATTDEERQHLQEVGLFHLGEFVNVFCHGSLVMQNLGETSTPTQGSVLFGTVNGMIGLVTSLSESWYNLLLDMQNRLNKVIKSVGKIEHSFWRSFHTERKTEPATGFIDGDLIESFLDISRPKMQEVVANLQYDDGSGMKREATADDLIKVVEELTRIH

| effect of a mutation on the interaction | Substance |
| --- | --- |
| disrupting interaction strength | DET1- and DDB1-associated protein 1 (Homo sapiens) (from UniProt Q9BW61) F16D |
| disrupting interaction strength | DET1- and DDB1-associated protein 1 (Homo sapiens) (from UniProt Q9BW61) H20D |
| disrupting interaction strength | DET1- and DDB1-associated protein 1 (Homo sapiens) (from UniProt Q9BW61) N15D |
| disrupting interaction strength | DET1- and DDB1-associated protein 1 (Homo sapiens) (from UniProt Q9BW61) P9D |
